# *1 amine or outer side, *2 acyl side, *3 side chain or, on linkers, in order; H or OH if unused. Where no end group is shown, it is not given here. Side-chain parts run from the residue outwards. [ ]: non-standard residue; d: D form. The star is where a group is joined. C18 diacid = O=C(O)CCCCCCCCCCCCCCCCC(=O)*; γGlu = O=C(O)[C@H](CCC(=O)[*:2])N[*:1]; Aib = CC(C)(N)C(=O)O
# Experiment: Physical stability via ThT, fibril formation (ASSAY IVc)
# Type: physicochemical
# Design: key to Aggregation (fibrillation, ThT): FD = Fibrillation Detected; FND = Fibrillation Not Detected
# Conditions: for Aggregation (fibrillation, ThT): 40° C. 4 days
# Method: Samples were prepared in a total volume of 0.5 mL API (herein e.g. CPD1) stock solutions were prepared by dissolving API in demineralised water at ambient temperature (typically 25° C.) to achieve 5 and 25 mg/mL API, respectively. 8 working solutions were prepared: 1) 40 mM phosphate pH 6 and 80 μM ThT; 2) 40 mM phosphate pH 6.5 and 80 μM ThT; 3) 40 mM phosphate pH 7 and 80 μM ThT; 4) 40 mM phosphate pH 8 and 80 μM ThT; 5) 40 mM phosphate pH 6, 540 mM mannitol and 80 μM ThT; 6) 40 mM phosphate pH 6.5, 540 mM mannitol and 80 μM ThT; 7) 40 mM phosphate pH 7, 540 mM mannitol and 80 μM ThT; and 8) 40 mM phosphate pH 8, 540 mM mannitol and 80 μM ThT.
# 200 μL of API stock was mixed with 250 μL working solution, pH was measured and adjusted to target, followed by adding demineralised water to a final volume of 500 μL. Samples were loaded in a 96-well black fluorescence plate (clear bottom) in triplicate 3×150 μL. Data were collected at fixed intervals of 10 min, each preceded by 300 s of automixing (agitation), over a period of 96 hours at 40° C. Physical stability, expressed as lag-time of fibril formation (in hours), was defined as the intersection between two linear regressions representing the initial stable phase and the growth phase.
substance,measurement,setting,value
"CPD1: any form of the compound comprising SEQ ID NO: 1 (CPD1OH or CPD1NH2 and any pharmaceutically acceptable salt thereof) (H-H[Aib]EGSFTSELATILDK([γGlu-C18 diacid])QAARDFIAWLIQHKITD; also: C-terminal acid or amide, both forms, salts)","Aggregation (fibrillation, ThT)","2 mg/mL CPD1, 20 mM phosphate pH 6, 270 mM mannitol",FD
same,"Aggregation (fibrillation, ThT)","2 mg/mL CPD1, 20 mM phosphate pH 6, no added tonicity agent",FD
same,"Aggregation (fibrillation, ThT)","2 mg/mL CPD1, 20 mM phosphate pH 6.5, 270 mM mannitol",FND
same,"Aggregation (fibrillation, ThT)","2 mg/mL CPD1, 20 mM phosphate pH 6.5, no added tonicity agent",FND
same,"Aggregation (fibrillation, ThT)","2 mg/mL CPD1, 20 mM phosphate pH 7, 270 mM mannitol",FND
same,"Aggregation (fibrillation, ThT)","2 mg/mL CPD1, 20 mM phosphate pH 7, no added tonicity agent",FND
same,"Aggregation (fibrillation, ThT)","2 mg/mL CPD1, 20 mM phosphate pH 8, 270 mM mannitol",FND
same,"Aggregation (fibrillation, ThT)","2 mg/mL CPD1, 20 mM phosphate pH 8, no added tonicity agent",FND
same,"Aggregation (fibrillation, ThT)","10 mg/mL CPD1, 20 mM phosphate pH 6, 270 mM mannitol",FD
same,"Aggregation (fibrillation, ThT)","10 mg/mL CPD1, 20 mM phosphate pH 6, no added tonicity agent",FD
same,"Aggregation (fibrillation, ThT)","10 mg/mL CPD1, 20 mM phosphate pH 6.5, 270 mM mannitol",FND
same,"Aggregation (fibrillation, ThT)","10 mg/mL CPD1, 20 mM phosphate pH 6.5, no added tonicity agent",FND
same,"Aggregation (fibrillation, ThT)","10 mg/mL CPD1, 20 mM phosphate pH 7, 270 mM mannitol",FND
same,"Aggregation (fibrillation, ThT)","10 mg/mL CPD1, 20 mM phosphate pH 7, no added tonicity agent",FND
same,"Aggregation (fibrillation, ThT)","10 mg/mL CPD1, 20 mM phosphate pH 8, 270 mM mannitol",FND
same,"Aggregation (fibrillation, ThT)","10 mg/mL CPD1, 20 mM phosphate pH 8, no added tonicity agent",FND
same,Amyloid formation / fibrillation,"2 and 10 mg/mL CPD1, pH 6",amyloid formation was observed
same,Amyloid formation / fibrillation,"2 and 10 mg/mL CPD1, pH 7 or 8",no fibrillation was observed
same,"Aggregation propensity, mannitol as tonicity agent compared to control (no tonicity agent)","pH range 6-8, 40° C. 4 days",No difference
